From patent publication US20250188434A1 (VERRA THERAPEUTICS, published 2025)

B1: wild type human ADAM9 prodomain peptide (SEQ ID NO: 2) (peptide)
chain: ARPGFQQTSHLSSYEIITPWRLTRERREAPRPYSKQVSYVIQAEGKEHIIHLERNKDLLPEDFVVYTYNKEGTLITDHPNIQNHCHYRGYVEGVHNSSIALSDCFGLRGLLHLENASYGIEPLQNSSHFEHIIYRMDDVYKEPLKCGVSNKDIEKETAKDEEEEPPSMTQLLRR
B2: pegylated SEQ ID NO: 22 (peptide)
chain: GSCGSARPGFQQTSHLSSYEIITPWRLTRERAEAPRPYSKQVSYVIQAEGKEHIIHLERNKDLLPEDFVVYTYNKEGTLITDHPNIQNHSHYRGYVEGVHNSSIALSDSFGLRGLLHLENASYGIEPLQNSSHFEHIIYRMDDVYKEPLKSGVSNKDIEKETAKDEEEEPPSMTQLLRR
modifications: pegylated at the N-terminus, on the cysteine of the added N-terminal pentapeptide (PEG size not stated for this construct)
B3: pegylated SEQ ID NO: 20 (peptide)
chain: ARPGFQQTSHLSSYEIITPWRLTREAREAPRPYSKQVSYVIQAEGKEHIIHLERNKDLLPEDFVVYTYNKEGTLITDHPNIQNHSHYRGYVEGVHNSSIALSDSFGLRGLLHLENASYGIEPLQNSSHFEHIIYRMDDVYKEPLKSGVSNKDIEKETAKDEEEEPPSMTQLLRRGSGSC
modifications: 20 kDa maleimide PEG on the cysteine of the pentapeptide added to the C-terminus
B4: pegylated SEQ ID NO: 23 (peptide)
chain: ARPGFQQTSHLSSYEIITPWRLTRERAEAPRPYSKQVSYVIQAEGKEHIIHLERNKDLLPEDFVVYTYNKEGTLITDHPNIQNHSHYRGYVEGVHNSSIALSDSFGLRGLLHLENASYGIEPLQNSSHFEHIIYRMDDVYKEPLKSGVSNKDIEKETAKDEEEEPPSMTQLLRRGSGSC
modifications: pegylated at the C-terminus, on the cysteine of the added C-terminal pentapeptide (PEG size not stated for this construct)
B5: modified ADAM9 prodomain peptide SEQ ID NO: 19 (peptide)
chain: ARPGFQQTSHLSSYEIITPWRLTRERAEAPRPYSKQVSYVIQAEGKEHIIHLERNKDLLPEDFVVYTYNKEGTLITDHPNIQNHSHYRGYVEGVHNSSIALSDSFGLRGLLHLENASYGIEPLQNSSHFEHIIYRMDDVYKEPLKSGVSNKDIEKETAKDNENEPPSMTQLLRR
B6: modified ADAM9 prodomain peptide SEQ ID NO: 12 (peptide)
chain: ARPGFQQTSHLSSYEIITPWRLTRERAEAPRPYSKQVSYVIQAEGKEHIIHLERNKDLLPEDFVVYTYNKEGTLITDHPNIQNHSHYRGYVEGVHNSSIALSDSFGLRGLLHLENASYGIEPLQNSSHFEHIIYRMDDVYKEPLKSGVSNKDIEKETAKDEEEEPPSMTQLLRR
B7: modified ADAM9 prodomain peptide SEQ ID NO: 16 (peptide)
chain: ARPGFQQTSHLSSYEIITPWRLTRERSEAPRPYSKQVSYVIQAEGKEHIIHLERNKDLLPEDFVVYTYNKEGTLITDHPNIQNHSHYRGYVEGVHNSSIALSDSFGLRGLLHLENASYGIEPLQNSSHFEHIIYRMDDVYKEPLKSGVSNKDIEKETAKDEEEEPPSMTQLLRR
B8: modified ADAM9 prodomain peptide SEQ ID NO: 14 (peptide)
chain: ARPGFQQTSHLSSYEIITPWRLTREAREAPRPYSKQVSYVIQAEGKEHIIHLERNKDLLPEAFVVYTYNKEGTLITDHPNIQNHSHYRGYVEGVHNSSIALSDSFGLRGLLHLENASYGIEPLQNSSHFEHIIYRMDDVYKEPLKSGVSNKDIEKETAKDEEEEPPSMTQLLRR
B9: modified ADAM9 prodomain peptide SEQ ID NO: 18 (peptide)
chain: ARPGFQQTSHLSSYEIITPWRLTRERAEAPRPYSKQVSYVIQAEGKEHIIHLERNKDLLPEDFVVYTYNKEGTLITDHPNIQNHSHYRGYVEGVHNSSIALSDSFGLRGLLHLENASYGIEPLQNSSHFEHIIYRMDSVYKEPLKSGVSNKDIEKETAKDEEEEPPSMTQLLRR
B10: modified ADAM9 prodomain peptide SEQ ID NO: 10 (peptide)
chain: ARPGFQQTSHLSSYEIITPWRLTREAREAPRPYSKQVSYVIQAEGKEHIIHLERNKDLLPEDFVVYTYNKEGTLITDHPNIQNHSHYRGYVEGVHNSSIALSDSFGLRGLLHLENASYGIEPLQNSSHFEHIIYRMDDVYKEPLKSGVSNKDIEKETAKDEEEEPPSMTQLLRR
B11: pegylated SEQ ID NO: 21 (peptide)
chain: ARPGFQQTSHLSSYEIITPWRLTRERAEAPRPYSKQVSYVIQAEGKEHIIHLERNKDLLPEDFVVYTYNKEGTLITDHPNIQNHSHYRGYVEGVHNSSIALSDSFGLRGLLHLENASYGIEPLQNSSHFEHIIYRMDDVYKEPLKCGVSNKDIEKETAKDEEEEPPSMTQLLRR
modifications: pegylated at cysteine 146 (PEG size not stated for this construct)
B12: modified ADAM9 prodomain peptide SEQ ID NO: 11 (peptide)
chain: ARPGFQQTSHLSSYEIITPWRLTAERREAPRPYSKQVSYVIQAEGKEHIIHLERNKDLLPEDFVVYTYNKEGTLITDHPNIQNHSHYRGYVEGVHNSSIALSDSFGLRGLLHLENASYGIEPLQNSSHFEHIIYRMDDVYKEPLKSGVSNKDIEKETAKDEEEEPPSMTQLLRR
B13: Chemically modified SEQ ID NO: 2 (wild type ADAM9 prodomain labelled with ALEXA FLUOR 647 maleimide ester) (peptide)
chain: ARPGFQQTSHLSSYEIITPWRLTRERREAPRPYSKQVSYVIQAEGKEHIIHLERNKDLLPEDFVVYTYNKEGTLITDHPNIQNHCHYRGYVEGVHNSSIALSDCFGLRGLLHLENASYGIEPLQNSSHFEHIIYRMDDVYKEPLKCGVSNKDIEKETAKDEEEEPPSMTQLLRR
modifications: ALEXA FLUOR 647 brand maleimide ester on its three cysteines (85, 104 and 146 of SEQ ID NO: 2)
B14: modified ADAM9 prodomain peptide SEQ ID NO: 13 (peptide)
chain: ARPGFQQTSHLSSYEIITPWRLTRERREAPRPYSKQVSYVIQAEGKEHIIHLERNKDLLPEDFVVYTYNKEGTLITDHPNIQNHSHYRGYVEGVHNSSIALSDSFGLRGLLHLENASYGIEPLQNSSHFEHIIYRMDDVYKEPLKSGVSNKDIEKETAKDEEEEPPSMTQLLRR
B15: modified ADAM9 prodomain peptide SEQ ID NO: 17 (peptide)
chain: QTSHLSSYEIITPWRLTRERAEAPRPYSKQVSYVIQAEGKEHIIHLERNKDLLPEDFVVYTYNKEGTLITDHPNIQNHSHYRGYVEGVHNSSIALSDSFGLRGLLHLENASYGIEPLQNSSHFEHIIYRMDDVYKEPLKSGVSNKDIEKETAKDEEEEPPSMTQLLRR
B16: 25-2 (SEQ ID NO: 22), as labelled in Table 5 (peptide)
chain: GSCGSARPGFQQTSHLSSYEIITPWRLTRERAEAPRPYSKQVSYVIQAEGKEHIIHLERNKDLLPEDFVVYTYNKEGTLITDHPNIQNHSHYRGYVEGVHNSSIALSDSFGLRGLLHLENASYGIEPLQNSSHFEHIIYRMDDVYKEPLKSGVSNKDIEKETAKDEEEEPPSMTQLLRR
B17: 25-3 (SEQ ID NO: 23), as labelled in Table 5 (peptide)
chain: ARPGFQQTSHLSSYEIITPWRLTRERAEAPRPYSKQVSYVIQAEGKEHIIHLERNKDLLPEDFVVYTYNKEGTLITDHPNIQNHSHYRGYVEGVHNSSIALSDSFGLRGLLHLENASYGIEPLQNSSHFEHIIYRMDDVYKEPLKSGVSNKDIEKETAKDEEEEPPSMTQLLRRGSGSC
B18: 25-1 (SEQ ID NO: 21), as labelled in Table 5 (peptide)
chain: ARPGFQQTSHLSSYEIITPWRLTRERAEAPRPYSKQVSYVIQAEGKEHIIHLERNKDLLPEDFVVYTYNKEGTLITDHPNIQNHSHYRGYVEGVHNSSIALSDSFGLRGLLHLENASYGIEPLQNSSHFEHIIYRMDDVYKEPLKCGVSNKDIEKETAKDEEEEPPSMTQLLRR

molecular target: T1, ADAM9 (human or mouse ADAM9, enzyme of the in vitro inhibition assay) (human or mouse, UniProt Q13443 206-697, limits assumed); assay: cell-based or functional assay
T1 sequence (looked up): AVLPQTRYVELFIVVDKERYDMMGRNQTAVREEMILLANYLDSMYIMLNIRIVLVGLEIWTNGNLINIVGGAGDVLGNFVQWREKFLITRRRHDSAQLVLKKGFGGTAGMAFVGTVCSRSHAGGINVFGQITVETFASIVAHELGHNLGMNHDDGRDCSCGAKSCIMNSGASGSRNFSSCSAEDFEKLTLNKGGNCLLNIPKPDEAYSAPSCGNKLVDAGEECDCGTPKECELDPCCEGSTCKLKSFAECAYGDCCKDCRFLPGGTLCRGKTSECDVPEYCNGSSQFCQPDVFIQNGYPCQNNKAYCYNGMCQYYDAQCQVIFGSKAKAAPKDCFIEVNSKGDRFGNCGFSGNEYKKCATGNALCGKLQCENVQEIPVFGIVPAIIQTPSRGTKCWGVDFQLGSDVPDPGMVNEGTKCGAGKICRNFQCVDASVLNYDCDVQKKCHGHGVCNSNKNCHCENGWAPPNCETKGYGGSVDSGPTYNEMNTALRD

In the case of B1, the “IC50, inhibition of ADAM9 activity; wild type prodomain assayed 1 week after dialysis, when dimer formation had occurred” value is reported as 120 nM.

molecular target: T1, ADAM9 (human or mouse ADAM9, enzyme of …); assay: cell-based or functional assay; remark: another data set of the same source

Going from B2 to B3, the “IC50, inhibition of ADAM9 activity on FRET substrate PEPDAB064; prodomain from inclusion bodies” value falls from 60 nM to 16 nM (3.8-fold).

Going from B4 to B1, the “IC50, inhibition of ADAM9 activity on FRET substrate PEPDAB064; prodomain from inclusion bodies” value falls from 39.9 nM to 20 nM (2-fold).

B5 and B6 are within 1.5-fold of each other in “IC50, inhibition of ADAM9 activity on FRET substrate PEPDAB064; prodomain from inclusion bodies” value: 33 nM for the first, 41 nM for the second.

First: B7
Second: B8
The “IC50, inhibition of ADAM9 activity on FRET substrate PEPDAB064; prodomain from inclusion bodies” value of the first is 4.7-fold lower: 29 nM for the first, 136 nM for the second.

First: B9
Second: B11
The “IC50, inhibition of ADAM9 activity on FRET substrate PEPDAB064; prodomain from inclusion bodies” value of the first is 4.5-fold higher: 181 nM for the first, 40.5 nM for the second.

Going from B12 to B13, the “IC50, inhibition of ADAM9 activity on FRET substrate PEPDAB064; prodomain from inclusion bodies” value falls from greater than 200 nM to 125 nM.

First: B14
Second: B15
The “IC50, inhibition of ADAM9 activity on FRET substrate PEPDAB064; prodomain from inclusion bodies” value of the first is 4-fold lower: 46 nM for the first, 185 nM for the second.

B6 and B10 are within 1.5-fold of each other in “IC50, inhibition of ADAM9 activity on FRET substrate PEPDAB064; prodomain from soluble fraction” value: 39 nM for the first, 49 nM for the second.

For B12, the “IC50, inhibition of ADAM9 activity on FRET substrate PEPDAB064; prodomain from soluble fraction” value was 13.8 nM.

In the case of B10, the “IC50, inhibition of ADAM9 activity on FRET substrate PEPDAB064; prodomain refolded from inclusion bodies (aggregating)” value is reported as greater than 200 nM.

molecular target: T2, Human Meprin beta (human, UniProt Q16820 62-652, limits assumed); assay: cell-based or functional assay
T2 sequence (looked up): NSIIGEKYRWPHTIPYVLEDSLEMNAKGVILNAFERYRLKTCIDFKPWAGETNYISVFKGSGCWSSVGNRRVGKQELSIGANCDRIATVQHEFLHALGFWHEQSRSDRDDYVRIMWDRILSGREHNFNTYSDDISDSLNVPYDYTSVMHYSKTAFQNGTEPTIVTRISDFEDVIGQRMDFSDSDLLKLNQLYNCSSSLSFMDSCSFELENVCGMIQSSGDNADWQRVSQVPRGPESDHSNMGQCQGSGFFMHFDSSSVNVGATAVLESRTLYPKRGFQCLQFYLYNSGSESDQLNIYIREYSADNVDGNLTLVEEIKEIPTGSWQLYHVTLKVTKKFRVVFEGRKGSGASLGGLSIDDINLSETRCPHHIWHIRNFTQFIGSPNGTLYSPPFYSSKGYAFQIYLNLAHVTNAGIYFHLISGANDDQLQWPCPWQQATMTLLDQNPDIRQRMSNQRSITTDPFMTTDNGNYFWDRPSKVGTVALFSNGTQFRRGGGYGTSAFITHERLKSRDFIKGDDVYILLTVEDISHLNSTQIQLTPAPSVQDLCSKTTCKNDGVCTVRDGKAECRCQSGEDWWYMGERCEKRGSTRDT

Compared with B16, B17 is 1.5-fold higher in “IC50, inhibition of activated Meprin beta on fluorescent substrate PEPDAB022” value: 3800 nM for the first, 5700 nM for the second.

Going from B1 to B6, the “IC50, inhibition of activated Meprin beta on fluorescent substrate PEPDAB022” value rises from 200 nM to 7400 nM (37-fold).

With B18 the “IC50, inhibition of activated Meprin beta on fluorescent substrate PEPDAB022” value was 2800 nM.
